Reference: patent EP1637166A2

Legend:
[1] = biological target: mouse CCR5 (mCCR5) cloned from B6 mice, transiently expressed on HeLa-MAGI cells (mouse) (UniProt P51682); experiment: 0.5 nM 125I-labelled human RANTES on mCCR5-transfected HeLa-MAGI cells in a 1000-fold excess (500 nM) of cold human RANTES
[2] = biological target: mouse CCR5 (mCCR5) cloned from B6 mice, transiently expressed on HeLa-MAGI cells (mouse) (UniProt P51682); experiment: 0.5 nM 125I-labelled human RANTES on mCCR5-transfected HeLa-MAGI cells, no sera

Chain of UniProt P51682 (P51682 whole entry): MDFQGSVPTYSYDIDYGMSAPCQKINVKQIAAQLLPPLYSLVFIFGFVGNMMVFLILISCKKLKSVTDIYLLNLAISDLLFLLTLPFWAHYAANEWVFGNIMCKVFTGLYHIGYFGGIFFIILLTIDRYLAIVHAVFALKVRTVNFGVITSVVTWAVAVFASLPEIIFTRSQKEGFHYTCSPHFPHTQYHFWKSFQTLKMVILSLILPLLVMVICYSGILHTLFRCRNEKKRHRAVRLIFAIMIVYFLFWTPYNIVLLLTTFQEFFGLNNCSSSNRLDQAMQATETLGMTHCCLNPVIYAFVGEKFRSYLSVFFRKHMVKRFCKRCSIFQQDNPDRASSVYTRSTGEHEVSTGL

- non-specific binding of iodinated RANTES [1]: 1300 cpm
- maximally bound iodinated RANTES [2]: 2550 cpm
Substance: 125I-labelled human RANTES (Amersham) (from UniProt P13501 24-91) (ligand)
